In patent US5821104:

Target: Phe-Pro-Ala-pNA

For “Aspergillus niger tripeptidyl aminopeptidase (TPAP) (enzyme)”, the specific activity (release of pNA in the TPAP assay) was 27 µmol/min/mg.
